Entries after “also recorded” stand apart in the source; their conditions may differ.
Experiments:
fEND.5 cells = assay: Static adhesion assay: human neutrophils on activated fEND.5 cells; format: cell-based, murine endothelial cell line; details: for LPS-induced adhesion of human neutrophils to fEND.5 cells (effect in words) / PMN Adhesion to LPS-stimulated fEND.5 Cells, Mean: LPS 20 μg/ml 3 hrs; for PMN Adhesion to LPS-stimulated fEND.5 Cells, Mean / PMN Adhesion to TNF-stimulated fEND.5 Cells, Mean: human neutrophils 50,000 per well; for TNF-induced adhesion of human neutrophils to fEND.5 cells (effect in words) / PMN Adhesion to TNF-stimulated fEND.5 Cells, Mean: TNFα 200 U/ml 3 hrs
Procedure: Static adhesion assays using human neutrophils (50,000 per well) and confluent fEND.5 cells in 24-well plates were performed exactly as described (see below—Methods section 11). Where noted, TNFα (200 U/ml) or LPS 20 μg/ml, were used to activate the fEND.5 cells for 3 hrs. PMNs were co-incubated with one of the recombinant human TM fragments 1, 2 or 4, (SEQ ID NO 1, 2, 4) or with HPLC-purified peptides representing human TM fragments 3,6 or 7 (SEQ ID NO 3, 6, 7). Tables 11-17 show results, where the amount of recombinant fragment in μg is shown on the bar graphs, and * indicates p<0.05 as compared with buffer control (i.e. without recombinant protein) under the same conditions. In all cases, appropriate controls were used for comparisons.
(§1) Endothelial cells were plated in 24-well dishes and grown to confluence. Following 2 washes of the cell monolayers with HBSS, freshly prepared BCECF-AM-labeled, neutrophils derived from human peripheral blood, or murine bone marrow-derived PMNs or lymphocytes 50,000 per well, were added in a final volume of 1 ml for 30 minutes at room temperature. The media was decanted and the cell monolayers were gently washed three times with HBSS after which the adherent fluorescently labeled leukocytes were counted with an inverted epiflourescence microscope as described above.

[1] = test system: TM^LeD/LeD endothelial cells; assay: Static adhesion assay: murine PMNs on endothelial cells from TM^LeD/LeD mice; format: cell-based; details: for PMN Adhesion (# per 15 HPFs): PMNs from wild-type mice
Procedure: Constitutive levels of circulating soluble TM, composed of proteolytic components of the extracellular domains, are found in the plasma of normal individuals, while quantitative changes occur in different disease states. Purified recombinant TMlec155 was prepared using the Pichia pastoris expression system, and further purified by a series of chromatographic steps as detailed in the methods. In a static adhesion assay on TM^Led/Led endothelial cells, PMNs were co-incubated with TMlec155 at two concentrations. Adhesion of PMNs to the resting endothelial cells was, as before, increased as compared with adhesion to wild-type endothelial cells (Table 9). […] The degree of suppression of adhesion was almost to the level of adhesion to wild-type endothelial cells. […] The role of recombinant TMlec155 in vivo was tested by injecting wild-type mice with LPS 20 μg/gm i.p., followed 5 minutes later with an intravenous bolus of recombinant TMlec155 or buffer alone. After a further 3 hours, the serum cytokine response was determined.
Endothelial tumors were induced to grow in 7 day old mice following intraperitoneal (i.p.) injection of retrovirus carrying the middle T antigen of murine Polyomavirus (PymT). After 10-14 days, the tumors were excised, and endothelial cells were isolated^32.33. Primary cultures of lymphatic endothelial cells were isolated from intraperitoneal lymphangiomas, growth of which was induced by injection of incomplete Freund's adjuvant exactly as described^34. Cells were cultured on collagen or gelatin coated plates in M199 media supplemented with 20% fetal bovine serum, porcine heparin 0.1 mg/ml, endothelial cell mitogen 5 μg/ml (Biomedical Technologies Inc., Stoughton, Mass.), 100 μg/ml penicillin and streptomycin 100 μg/ml. Cell cultures were incubated at 37° C. in a humidified atmosphere of 5% CO2 and 95% air, and experiments were performed at passage 3-8. Over 95% of the cells immuno-stained positively for TM and vWF, confirming the endothelial origin and purity.
Neutrophils and lymphocytes were isolated from bone marrow according to the method of Lowell and Berton ^35. Each population was assessed to be over 95% pure by microscopic analysis after Wright staining.
as §1

IL-1β = assay: Cytokine response in vivo after LPS i.p. in wild-type mice; details: LPS 20 μg/gm i.p.
Procedure: Table 10: Effect of recombinant TMlec155 on cytokine response in vivo. Wild-type mice were treated with LPS 20 μg/gm i.p., following 5 min later with the noted treatment. Plasma levels of IL-1b were measured 3 hours later
Constitutive levels of circulating soluble TM, composed of proteolytic components of the extracellular domains, are found in the plasma of normal individuals, while quantitative changes occur in different disease states. Purified recombinant TMlec155 was prepared using the Pichia pastoris expression system, and further purified by a series of chromatographic steps as detailed in the methods. In a static adhesion assay on TM^Led/Led endothelial cells, PMNs were co-incubated with TMlec155 at two concentrations. […] After a further 3 hours, the serum cytokine response was determined.
Double antibody sandwich ELISA kits, purchased from R & D Systems Europe (Abingdon, UK), were used to quantitate murine plasma levels of TNFα, IL-1β, IL-6 and IL-10. […] A sensitive and specific radioimmunoassay to quantitate plasma levels of murine FPA was performed as previously reported^24.
Lipopolysaccharide (LPS) from Escherichia coli serotype 0111:B4 (Sigma) was injected intraperitoneally into 10-12 week old mice. For lethality studies, animals were closely monitored each day until either recovery or cessation of breathing. […]

pERK1/2 and NFκB = assay: TNFα-induced pERK1/2 and NFκB in HUVECs; format: cell-based, human; details: TNFα 200 U/ml for 20 minutes
Procedure: We predicted that soluble lectin-like domain of TM would suppress PMN adhesion by altering regulation of MAP kinase pathways in ECs. Therefore, HUVECs were exposed to TNFα (200 U/ml) for 20 minutes. […] Total ERK1/2 levels remained unchanged.

HUVECs = assay: Rescue of HUVECs from serum starvation-induced cell death; format: cell-based, human; details: 3 days of serum deprivation
Procedure: Because endothelial cell death is a pathway of sustained tissue damage, we evaluated whether TMlec155 was capable of rescuing HUVECs from serum starvation-induced cell death. After 3 days of serum deprivation, over 95% of HUVECs died. Serum starvation with the addition of TMlec155 at concentrations of 1, 10 and 20 μg/ml rescued 2±0.6%, 18±7% and 34±14% of the cells (p=0.69, p<0.05, p<0.05, respectively compared with serum-starved controls), showing that soluble TM rnay also have pro-survival properties.

Row | Molecule | LPS-induced adhesion of human neutrophils to fEND.5 cells (effect in words) (fEND.5 cells) | PMN Adhesion to LPS-stimulated fEND.5 Cells, Mean (fEND.5 cells; 1 μg of fragment) | PMN Adhesion to LPS-stimulated fEND.5 Cells, Mean (fEND.5 cells; 5 μg of fragment) | PMN Adhesion to LPS-stimulated fEND.5 Cells, Mean (fEND.5 cells; 8 μg of fragment) | PMN Adhesion to LPS-stimulated fEND.5 Cells, Mean (fEND.5 cells; 15 μg of fragment) | TNF-induced adhesion of human neutrophils to fEND.5 cells (effect in words) (fEND.5 cells) | further results
1 | pept n^o 23: HPLC-purified peptide, amino acids 84-97 of SEQ ID NO: 1 (human TM) | significantly suppressed | 31.015 | 21.535 | – | – | – | –
2 | pept. N^o 24: HPLC-purified peptide, amino acids 3-33 of SEQ ID NO: 1 (human TM) (PQPGGSQCVEHDCFALYPGPATFLNASQICD; PEPTIDE (1)...(31) Human thrombomodulin fragment 3; listed as Homo sapiens) | significantly suppressed | 38.830 | 44.019 | 22.000 | – | – | –
3 | pr. 480 bp: Recombinant human TM fragment, amino acids 1 to 157 of the mature protein, expressed in Pichia pastoris (protein, listed as Homo sapiens, PEPTIDE (1)...(157) Human thrombomodulin fragment 2, Recombinant human TM fragment, amino acids 1 to 157 of the mature protein, expressed in Pichia pastoris) AEPQPGGSQCVEHDCFALYPGPATFLNASQICDGLRGHLMTVRSSVAADVISLLLNGDGGVGRRRLWIGLQLPPGCGDPKRLGPLRGFQWVTGDNNTSYSRWARLDLNGAPLCGPLCVAVSAAEATVPSEPIWEEQQCEVKADGFLCEFHFPATCRP | significantly suppressed | – | 27.68 | 25.50 | 19.01 | – | –
4 | pr. 680 bp: Recombinant human TM fragment, amino acids 1 to 224 of the mature protein, entire N-terminal domain, expressed in Pichia pastoris (protein, listed as Homo sapiens, PEPTIDE (1)...(224) Human thrombomodulin fragment 1, Recombinant human TM fragment, amino acids 1 to 224 of the mature protein, entire N-terminal domain, expressed in Pichia pastoris) AEPQPGGSQCVEHDCFALYPGPATFLNASQICDGLRGHLMTVRSSVAADVISLLLNGDGGVGRRRLWIGLQLPPGCGDPKRLGPLRGFQWVTGDNNTSYSRWARLDLNGAPLCGPLCVAVSAAEATVPSEPIWEEQQCEVKADGFLCEFHFPATCRPLAVEPGAAAAAVSITYGTPFAARGADFQALPVGSSAAVAPLGLQLMCTAPPGAVQGHWAREAPGAWD | significantly suppressed | – | 29.403 | 24.292 | 18.333 | significantly suppressed | PMN Adhesion to TNF-stimulated fEND.5 Cells, Mean (fEND.5 cells; 5 μg of fragment): 85.656; PMN Adhesion to TNF-stimulated fEND.5 Cells, Mean (fEND.5 cells; 10 μg of fragment): 24.303
5 | pr. 400 bp: Recombinant human TM fragment, amino acids 33 to 159 of the mature protein, expressed in Pichia pastoris (protein, listed as Homo sapiens, PEPTIDE (1)...(127) Human thrombomodulin fragment 4, Recombinant human TM fragment, amino acids 33 to 159 of the mature protein, expressed in Pichia pastoris) DGLRGHLMTVRSSVAADVISLLLNGDGGVGRRRLWIGLQLPPGCGDPKRLGPLRGFQWVTGDNNTSYSRWARLDLNGAPLCGPLCVAVSAAEATVPSEPIWEEQQCEVKADGFLCEFHFPATCRPLA | suppressed | – | 33.642 | 29.725 | – | suppressed | PMN Adhesion to TNF-stimulated fEND.5 Cells, Mean (fEND.5 cells; 8 μg of fragment): 53.417; PMN Adhesion to TNF-stimulated fEND.5 Cells, Mean (fEND.5 cells; 20 μg of fragment): 63.500
6 | TMlec155: Recombinant first 155 amino acids of murine TM, restricted to the lectin-like region, polyhistidine-tagged, expressed in Pichia pastoris (protein, left off: small tags and cut ends, Recombinant first 155 amino acids of murine TM, restricted to the lectin-like region, polyhistidine-tagged, expressed in Pichia pastoris) LSALAKLQPTGSQCVEHECFALFQGPATFLDASQACQRLQGHLMTVRSSVAADVISLLLSQSSMDLGPWIGLQLPQGCDDPVHLGPLRGFQWVTGDNHTSYSRWARPNDQTAPLCGPLCVTVSTATEAAPGEPAWEEKPCETETQGFLCEFYFTA | – | – | – | – | – | – | PMN Adhesion (# per 15 HPFs) ([1]; TM^LeD/LeD + TNF endothelial cells, recombinant TMlec155 3.6 mg): 132 ± 90 # per 15 HPFs; PMN Adhesion (# per 15 HPFs) ([1]; TM^LeD/LeD + TNF endothelial cells, recombinant TMlec155 7.2 mg): 153 ± 106 # per 15 HPFs; PMN Adhesion (# per 15 HPFs) ([1]; resting TM^LeD/LeD endothelial cells, recombinant TMlec155 3.6 mg): 15 ± 6 # per 15 HPFs; PMN Adhesion (# per 15 HPFs) ([1]; resting TM^LeD/LeD endothelial cells, recombinant TMlec155 7.2 mg): 12 ± 7 # per 15 HPFs; Adhesion of PMNs to TNFα-activated TM^Led/Led endothelial cells (effect in words) ([1]; static adhesion assay, PMNs co-incubated with TMlec155): significantly reduced; Adhesion of PMNs to resting TM^Led/Led endothelial cells (effect in words) ([1]; static adhesion assay, PMNs co-incubated with TMlec155 at two concentrations): significantly decreased; also recorded: abrogated; also recorded: significant decrease in adhesion; IL-1β levels (effect in words) (IL-1β; i.v. bolus 5 minutes later, 3 hours, compared with control): significantly suppressed; IL-1β (IL-1β; treatment i.v. bolus 5 min later, plasma 3 hours later): 286 ± 75 ng/mL; Accumulation of NFκB (pERK1/2 and NFκB): similarly interfered; Accumulation of pERK1/2 (pERK1/2 and NFκB): similarly interfered; cells rescued from serum starvation-induced cell death (HUVECs; 1 μg/ml): 2±0.6%; cells rescued from serum starvation-induced cell death (HUVECs; 10 μg/ml): 18±7%; cells rescued from serum starvation-induced cell death (HUVECs; 20 μg/ml): 34±14%
